This is an account of results in US20250115669A1, “FGFR1/KLB Targeting Agonistic Antigen-Binding Proteins and Conjugates Thereof with GLP-1R Agonistic Peptides” (SANOFI, priority 2020, published 2025).

To fix the notation:
T1: human beta-Klotho (Homo sapiens, UniProt Q86Z14)
T1 sequence (Q86Z14 1-1044): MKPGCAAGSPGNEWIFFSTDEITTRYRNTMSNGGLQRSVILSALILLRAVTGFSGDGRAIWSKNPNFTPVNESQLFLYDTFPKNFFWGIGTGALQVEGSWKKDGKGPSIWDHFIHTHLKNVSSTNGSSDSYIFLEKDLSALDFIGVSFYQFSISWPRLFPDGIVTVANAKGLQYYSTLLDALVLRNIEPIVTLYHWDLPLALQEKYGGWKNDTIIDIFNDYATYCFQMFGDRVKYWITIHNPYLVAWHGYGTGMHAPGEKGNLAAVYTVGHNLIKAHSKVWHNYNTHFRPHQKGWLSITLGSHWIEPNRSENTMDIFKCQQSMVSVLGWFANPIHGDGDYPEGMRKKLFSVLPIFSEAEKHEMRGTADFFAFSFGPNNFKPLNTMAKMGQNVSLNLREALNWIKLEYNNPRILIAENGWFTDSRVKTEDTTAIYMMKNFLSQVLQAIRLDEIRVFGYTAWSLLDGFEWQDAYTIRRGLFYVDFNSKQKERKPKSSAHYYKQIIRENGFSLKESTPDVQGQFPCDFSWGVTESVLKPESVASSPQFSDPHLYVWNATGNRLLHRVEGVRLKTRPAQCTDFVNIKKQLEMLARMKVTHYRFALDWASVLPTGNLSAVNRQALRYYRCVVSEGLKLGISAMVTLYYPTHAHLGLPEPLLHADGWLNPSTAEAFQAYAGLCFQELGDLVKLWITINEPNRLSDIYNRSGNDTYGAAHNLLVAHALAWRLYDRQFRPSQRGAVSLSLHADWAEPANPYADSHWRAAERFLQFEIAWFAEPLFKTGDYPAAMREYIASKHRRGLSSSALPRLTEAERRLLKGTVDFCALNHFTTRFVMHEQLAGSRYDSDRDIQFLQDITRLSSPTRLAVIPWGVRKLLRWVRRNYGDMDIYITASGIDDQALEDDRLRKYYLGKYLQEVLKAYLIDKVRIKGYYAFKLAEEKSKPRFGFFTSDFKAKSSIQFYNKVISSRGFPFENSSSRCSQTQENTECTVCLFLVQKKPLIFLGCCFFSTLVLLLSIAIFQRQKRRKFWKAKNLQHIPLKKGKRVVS

B1: Ab0394: IgG4 PE; 16H7 VL (Y48del, D95S, W90F, S1C, S94C); 16H7 VH (M34V, H52W, I83T, D109E) (antibody)
VH: QVTLKESGPVLVKPTETLTLTCTVSGFSLNNARVGVSWIRQPPGKALEWLAWIFSNDEKSYSTSLKSRLTISKDTSKSQVVLTMTNMDPVDTATYYCARSVVTGGYYYEGMDVWGQGTTVTVSS
light: CYVLTQPPSVSVAPGQTARITCGGNNIGSESVHWYQQKPGQAPVLVVDDSDRPSGIPERFSGSNSGNTATLTISRVEAGDEADYYCQVFDGNCSHVVFGGGTKLTVLGQPKANPTVTLFPPSSEELQANKATLVCLISDFYPGAVTVAWKADGSPVKAGVETTKPSKQSNNKYAASSYLSLTPEQWKSHRSYSCQVTHEGSTVEKTVAPTECS
B2: Ab0408: IgG4 PE; 16H7 VL (Y48del, D95T, W90F); 16H7 VH (M34V, H52W, I83T, D109E) (antibody)
VH: B1 VH
light: B1 light with C1S, C93S, S94T
B3: Ab0329: IgG4 PE; 16H7 VL (N25S, D49Y, D50S, D91A, N93S); 16H7 VH (M34V, I83T, D109E) (antibody)
VH: B1 VH with W52H
light: SYVLTQPPSVSVAPGQTARITCGGSNIGSESVHWYQQKPGQAPVLVVYYSSDRPSGIPERFSGSNSGNTATLTISRVEAGDEADYYCQVWAGSSDHVVFGGGTKLTVLGQPKANPTVTLFPPSSEELQANKATLVCLISDFYPGAVTVAWKADGSPVKAGVETTKPSKQSNNKYAASSYLSLTPEQWKSHRSYSCQVTHEGSTVEKTVAPTECS
B4: Ab0404: IgG4 PE; 16H7 VL (Y48del, D95T, W90F); 16H7 VH (M34V, F54W, I83T, D109E) (antibody)
VH: B1 VH with W52H, F54W
light: B1 light with C1S, C93S, S94T
B5: Ab0402: IgG4 PE; 16H7 VL (Y48del, D95A, W90F, S94C, H96C); 16H7 VH (M34V, H52W, I83T, D109E) (antibody)
VH: B1 VH
light: B1 light with C1S, S94A, H95C
B6: Ab0326: IgG4 PE; 16H7 VL (N25S, D49Y, D50E, D91E, N93S); 16H7 VH (M34V, I83T, D109E) (antibody)
VH: B1 VH with W52H
light: B3 light with S50E, A91E
B7: Ab0416: IgG4 PE; 16H7 VL (N25S, D49Y, D50E, D91E, N93E); 16H7 VH (M34V, I83T, D109E) (antibody)
VH: B1 VH with W52H
light: B3 light with S50E, A91E, S93E
B8: Ab0395: IgG4 PE; 16H7 VL (Y48del, D95A, W90F); 16H7 VH (M34V, F54W, I83T, D109E) (antibody)
VH: B1 VH with W52H, F54W
light: B1 light with C1S, C93S, S94A
B9: Ab0398: IgG4 PE; 16H7 VL (Y48del, D95A, W90F, S1C, S94C); 16H7 VH (M34V, H52S, F54W, I83T, D109E) (antibody)
VH: B1 VH with W52S, F54W
light: B1 light with S94A
B10: Ab0396: IgG4 PE; 16H7 VL (Y48del, D95A, W90F); 16H7 VH (M34V, H52S, F54W, I83T, D109E) (antibody)
VH: B1 VH with W52S, F54W
light: B1 light with C1S, C93S, S94A
B11: Ab0399: IgG4 PE; 16H7 VL (Y48del, D95A, W90F, S94C, H96C); 16H7 VH (M34V, F54W, I83T, D109E) (antibody)
VH: B1 VH with W52H, F54W
light: B1 light with C1S, S94A, H95C
B12: Ab0403: IgG4 PE; 16H7 VL (Y48del, D95A, W90F, S1C, S94C); 16H7 VH (M34V, H52W, I83T, D109E) (antibody)
VH: B1 VH
light: B1 light with S94A
B13: Ab0410: IgG4 PE; 16H7 VL (Y48del, D95S, W90Y); 16H7 VH (M34V, I83T, D109E) (antibody)
VH: B1 VH with W52H
light: B1 light with C1S, F89Y, C93S
B14: Ab0406: IgG4 PE; 16H7 VL (Y48del, D95T, W90F, S1C, S94C); 16H7 VH (M34V, H52S, F54W, I83T, D109E) (antibody)
VH: B1 VH with W52S, F54W
light: B1 light with S94T
B15: Ab0327: IgG4 PE; 16H7 VL (N25S, D49Y, D50Y, D91E, N93E); 16H7 VH (M34V, I83T, D109E) (antibody)
VH: B1 VH with W52H
light: B3 light with S50Y, A91E, S93E
B16: Ab0400: IgG4 PE; 16H7 VL (Y48del, D95A, W90F, S94C, H96C); 16H7 VH (M34V, H52S, F54W, I83T, D109E) (antibody)
VH: B1 VH with W52S, F54W
light: B1 light with C1S, S94A, H95C
B17: Ab0397: IgG4 PE; 16H7 VL (Y48del, D95A, W90F, S1C, S94C); 16H7 VH (M34V, F54W, I83T, D109E) (antibody)
VH: B1 VH with W52H, F54W
light: B1 light with S94A
B18: Ab0417: IgG4 PE; 16H7 VL (N25S, D49Y, D50E, D91H, N93E); 16H7 VH (M34V, I83T, D109E) (antibody)
VH: B1 VH with W52H
light: B3 light with S50E, A91H, S93E
B19: Ab0328: IgG4 PE; 16H7 VL (N25S, D49Y, D50A, D91A, N93S); 16H7 VH (M34V, I83T, D109E) (antibody)
VH: B1 VH with W52H
light: B3 light with S50A
B20: Ab0401: IgG4 PE; 16H7 VL (Y48del, D95A, W90F); 16H7 VH (M34V, H52W, I83T, D109E) (antibody)
VH: B1 VH
light: B1 light with C1S, C93S, S94A
B21: Ab0405: IgG4 PE; 16H7 VL (Y48del, D95T, W90F); 16H7 VH (M34V, H52S, F54W, I83T, D109E) (antibody)
VH: B1 VH with W52S, F54W
light: B1 light with C1S, C93S, S94T

Positions count from the first letter of the chain named. Names and notes keep the numbering of the source.

The test concerns the target T1, human beta-Klotho. In words: SPR off-rate screening of antibody mutants (human beta-Klotho captured by anti-His antibody). It is filed as binding. The note with it: mean, n=3. The procedure: Screening of antibody mutants for binding to human beta-Klotho was determined in a different SPR assay set up. Human beta-Klotho was affinity captured by an anti-His antibody (from His capture kit, GE Healthcare) that was immobilized to a series S CM5 chip (GE Healthcare) by amine reactive coupling as described above. The antibody samples were used as analytes at 50 nmol/L concentration. Association time was 240 sec and dissociation time was 300 sec. Chip surfaces were regenerated using the regeneration solution supplied with the His capture kit. The off-rates (kd) were determined using single exponential fitting in the Biacore 8K Evaluation Software version 1.1.1.7442 (GE Healthcare).
On to B1, for which the “koff human KLB” value is recorded as “no binding”.

As to B2, the “koff human KLB” value is “no binding”.

B3: the “koff human KLB” value is reported as “invalid fit”.

Turning to B4, the “koff human KLB” value is on record as “no binding”.

Take B5: the “koff human KLB” value is “no binding”.

In the case of B6, the “koff human KLB” value was found to be 0.00175 s⁻¹.

With B7, the “koff human KLB” value was found to be 0.00107 s⁻¹.

On to B8, for which the “koff human KLB” value is given as “no binding”.

Regarding B9, the “koff human KLB” value was “no binding”.

As for B10, the “koff human KLB” value is on record as “no binding”.

On to B11, for which the “koff human KLB” value is listed as “no binding”.

For B12, the “koff human KLB” value was “no binding”.

For the molecule B13, the “koff human KLB” value is reported as “no binding”.

As to B14, the “koff human KLB” value is “no binding”.

Regarding B15, the “koff human KLB” value turned out to be 0.0003459 s⁻¹.

On to B16, for which the “koff human KLB” value is on record as “no binding”.

As for B17, the “koff human KLB” value was “no binding”.

As to B18, the “koff human KLB” value is 0.0003027 s⁻¹.

As to B19, the “koff human KLB” value is “invalid fit”.

With B20, the “koff human KLB” value is reported as “no binding”.

For the molecule B21, the “koff human KLB” value is given as “no binding”.
